Measurements as given in publication PMC4503980 (Scientific Reports, 2015).
Ends that are not written are not given here. Peptide text beside a SMILES is read from it. * marks the point of attachment. X1 = CCN1C(=CC=CC=CC2=[N+](CCCCCC(=O)NCCN3C(=O)CC(*)C3=O)c3ccc(S(=O)(=O)[O-])cc3C2(C)C)C(C)(C)c2cc(S(=O)(=O)O)ccc21

What was measured:
[1] = biological target: T1, nNOS-PDZ (Homo sapiens, UniProt P29475); assay: FP saturation and inhibition assay, Cy5-Nav1.4 probe / nNOS-PDZ; assay type: binding
T1 construct: nNOS-PDZ (12–130, human); made in house; host or cells: E. coli
Method: Fluorescent probes were made by attaching fluorophores (Cy5) to C-terminal 10- or 11-mer (C10 or C11) peptide ligands representing canonical and natural occurring protein partners (Supplementary Table S1). […] (Fig. 2).
(b) Cy5-GluN2B as probe (50 nM), [PDZ2] = 6 μM. (c) Cy5-CRIPT as probe (50 nM), [PDZ3] = 5 μM. […] Error bars indicate SEM based on three individual measurements.
nNOS-PDZ (12–130, human) and α-Syntrophin-PDZ (82–200, human), both comprising an N-terminal His-tag/FXa-site sequence ([…]), were likewise expressed in E. coli and purified by HisTrap chromatography followed by gel-filtration as described in details previously. To make the TAMRA-labelled nNOS-PDZ, mutant nNOS-PDZ (V36C) protein was generated by standard site-directed mutagenesis and characterized as described previously. Here, dithiothreitol was added to the pooled protein sample after HisTrap purification to a final concentration of 10 mM to eliminate unwanted disulfide bonds, and a final gel-filtration (50 mM NaPi buffer pH 7.5) was performed to remove impurities and salts. Next, purified nNOS-PDZ (V36C) was desalted by dialysis into 50 mM (NH4)2CO3 buffer (SnakeSkin dialysis tubing 3.5 MWCO, Pierce, Rockford, IL, USA) and subsequently lyophilized. nNOS-PDZ (V36C) was redissolved in 500 μL buffer (6 M GnHCl, 200 mM NaPi) and solid TAMRA-maleimide (5-tetramethylrhodamine-C2-maleimide; Anaspec, Fremont, CA, USA) was added in excess (cf. ESI-LC-MS). The coupling reaction was incubated at room temperature for 16 hours and TAMRA-labelled nNOS-PDZ was purified by preparative HPLC, and refolded in assay buffer. Functional validation was performed by FP[19], and all final proteins were characterized for purity and identity by SDS-PAGE and ESI-LC-MS.
Incubation time was 10–15 minutes (room temperature), and the assay was performed in a 1 × TBS buffer (150 mM NaCl, 10 mM Tris, pH 7.4) using black flat-bottom 384-well plates (Corning Life Sciences, NY) and a Safire2 plate-reader (Tecan, Männedorf, Switzerland). G-factor was adjusted so that probe alone (i.e. without protein interacting-partner) would give an FP value of 20 mP. This background value was subsequently subtracted from the raw data before plotting and analyzing the data. TAMRA- and Cy5-probes were measured at excitation/emission values of 530/585 nm (bandwidth = 20 nm) and 635/670 nm (bandwidth = 15 nm), respectively. […]
FP values were fitted to the general equation: Y = Bottom + (Top–Bottom)/[1 + (10^(X-logIC50)*HillSlope)], where X is the logarithmic value of peptide/compound concentration, and Y is the experimental FP values. Competitive inhibition constants, Ki values, were calculated from the IC50 values to quantify affinities between test substance and protein[42]. […]

[2] = biological target: PDZ2 (155-249) from PSD-95 (human); assay: fluorescence polarisation; inhibition of TAMRA-Cnskr2 (5 nM)/PDZ2 (1.5 μM) or PDZ1-2 (1 μM) by increasing unlabelled nNOS-PDZ or GluN2B-C5; 1 x TBS pH 7.4; Ki calculated from IC50
[3] = biological target: PDZ1-2 (61-249) from PSD-95 (human); assay: as above
[4] = biological target: TAMRA-labelled nNOS-PDZ (V36C) (human) (UniProt P29475); assay: fluorescence polarisation; saturation binding: increasing PDZ domain protein (typically 0-150 μM) added to a fixed low concentration of TAMRA- or Cy5-labelled probe (5 or 50 nM); 1 x TBS (150 mM NaCl, 10 mM Tris, pH 7.4), 10-15 min, room temperature
[5] = biological target: TAMRA-Cnskr2; assay: as above
[6] = biological target: T2, PSD-95-PDZ2 (157-249, human) (human, UniProt P78352 157-249); assay: ITC; 25 °C, 20 mM phosphate buffer pH 6.3; 100 μM PDZ2 in the cell titrated with 750 μM nNOS-PDZ; one-site model; conditions: both partners purified
T2 construct: PSD-95, human, PDZ2 domain, residues 157-249; Construct of the ITC and NMR experiments; 15N-labelled in some NMR samples

With CCN1C(=CC=CC=CC2=[N+](CCCCCC(=O)NCCN3C(=O)CC(SC[C@H](N)C(=O)N[C@@H](CC(N)=O)C(=O)N[C@@H](CC(N)=O)C(=O)NCC(=O)N[C@H](C(=O)N[C@@H](CCCNC(=N)N)C(=O)N4CCC[C@H]4C(=O)NCC(=O)N[C@H](C(=O)N[C@@H](CCCCN)C(=O)N[C@@H](CCC(=O)O)C(=O)N[C@@H](CO)C(=O)N[C@@H](CC(C)C)C(=O)N[C@H](C(=O)O)C(C)C)C(C)C)C(C)C)C3=O)c3ccc(S(=O)(=O)[O-])cc3C2(C)C)C(C)(C)c2cc(S(=O)(=O)O)ccc21 (some centres unmarked) [Cy5-Nav1.4] (H-C(X1)NNGVRPGVKESLV-OH; N-terminus assumed) the Kd ([1]; saturation curve, probe 50 nM) was 20 ± 1 µM.

Work on GluN2B-C5 (peptide) yielded a Ki [2] of 1600 nM and a Ki [3] of 4.8 µM.

With NNGVRPGVKESLV [Nav1.4-C10] the Ki ([1]; Cy5-Nav1.4 probe 50 nM / nNOS-PDZ) was 45 ± 4 µM.

“PDZ1 (61-151) from PSD-95 (domain or fragment)” showed a Kd [4] of 2400 nM.

“PDZ1-2 (61-249) from PSD-95 (domain or fragment)” showed a Kd [4] of 150 nM and a Kd [5] of 1100 nM.

In the case of “PDZ2 (155-249) from PSD-95 (domain or fragment)”, the Kd [4] is reported as 1100 nM and the Kd [5] is reported as 380 nM.

B1: extended Mus musculus nNOS-PDZ (residues 12-134) (domain or fragment, UniProt Q9Z0J4 12-134, looked up)
chain: QPNVISVRLFKRKVGGLGFLVKERVSKPPVIISDLIRGGAAEQSGLIQAGDIILAVNDRPLVDLSYDSALEVLRGIASETHVVLILRGPEGFTTHLETTFTGDGTPKTIRVTQPLGTPTKAVD
notes: neuronal nitric oxide synthase (nNOS), Mus musculus, extended PDZ domain, residues 12-134, Uniprot Q9JJ30; Construct of the ITC and NMR experiments; 15N-labelled in some NMR samples; also called extended nNOS-PDZ; source: sub-cloned into pETM11, expressed and purified following a similar protocol to that of PSD-95-PDZ2
For B1, the dH [6] was ~-1.7 kcal/mol and the “stoichiometry N” value [6] was 1.
